Data as given in patent publication US20140294815A1 (NVIP, published 2014).

Tests used:
[1] = molecular target: T1, canine tumour necrosis factor alpha (canine, UniProt P51742 77-233); test: binding assay of FIG. 12(a) Panel C, compared with the D2E7 based MAbs
T1 construct: Coated at 5 ug/ml in the ELISA; used at 1 ng/mL in the reporter assay; also called canine TNF; canine TNFa

human TNF = molecular target: T2, human TNF (human, UniProt P01375 77-233); test: binding assay of FIG. 12(a) Panel B
T2 construct: also called huTNF
T2 sequence (P01375 77-233 limits assumed): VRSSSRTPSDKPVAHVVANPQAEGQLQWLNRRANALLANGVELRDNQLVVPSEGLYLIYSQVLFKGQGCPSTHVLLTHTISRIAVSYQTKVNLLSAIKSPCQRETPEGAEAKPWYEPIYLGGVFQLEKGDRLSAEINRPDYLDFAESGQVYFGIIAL

[2] = molecular target: T1, canine tumour necrosis factor alpha; test: ELISA, canine TNFa coated, antibody 5 ug/ml to 0.05 ug/ml
Experimental: The resultant supernatants were purified on Protein A, analysed by SDS-PAGE (FIG. 10A) and tested for binding to canine TNFa (coated at 5 ug/ml; R&D systems) at the indicated concentrations of antibody (ug/ml) by ELISA and detected using anti-canine polyclonal antibody-horseradish peroxidase conjugate (Sigma A9042) (FIG. 10B). The negative control was the detection polyclonal on coated antigen alone.

T1 sequence (P51742 77-233 limits assumed): as the sequence (P01375 77-233 limits assumed) above, with R2K, Q21E, N30S, R44T, V49I, E53D, I83F, A109T, R138L, D140N counted along it

binding result (human TNF) | Binder | binding result [1] | binding result [2]
binds | caninised anti-huTNF MAb 148 (SEQ ID NO:18 plus SEQ ID NO:19) (antibody, V domains shown, Expressed in CHO cells and purified by Protein A chromatography; also called ca148-HCB) VH: EVQLVESGGGVVQPGGSLRLSCAASGFIFSSYAMRWVRQAPGKGLEWVAFMSYDGSNKKYADSVKGRFTISRDNSKNTLYLQMNSLRAEDTAVYYCARDRGIAAGGNYYYYGMDVWGQGTSVTVSS VL: EIVMTQSPASLSLSPGEKATISCRASQSVYSYLAWYQQKPGQAPRLLIYDASNRATGVPSRFSGSGSGTDFTLTISSLEPEDVAVYYCQQPSNWPPFTFGPGTKVDIKR | no binding | 
binds | caninised anti-TNF monoclonal antibody (SEQ ID NO:3 light chain plus SEQ ID NO:5 heavy chain), based on D2E7 (antibody, V domains shown, canine IgG-B heavy chain, kappa light chain; also called ca-HCB+ca-kLC; caninised (Ca) D2E7 based MAb) VH: not shown VL: DIVMTQSPASLSLSQEEKVTITCRASQGIRNYLAWYQQKPGQAPKLLIYAASTLQSGVPSRFSGSGSGTDFTLTISSLEPEDVAVYYCQRYNRAPYTFGQGTKVEIKR |  | binds
